Measured values taken from patent US20210188994A1.

Target: His-tagged FcγRIIIa recombinant protein (UniProt P08637)
Assay: SPR (BIACORE X100), His-tagged FcγRIIIa captured on anti-His CM5 chip, antibody as analyte, 1:1 Langmuir fit

Sequence of UniProt P08637 (P08637 17-208 limits assumed): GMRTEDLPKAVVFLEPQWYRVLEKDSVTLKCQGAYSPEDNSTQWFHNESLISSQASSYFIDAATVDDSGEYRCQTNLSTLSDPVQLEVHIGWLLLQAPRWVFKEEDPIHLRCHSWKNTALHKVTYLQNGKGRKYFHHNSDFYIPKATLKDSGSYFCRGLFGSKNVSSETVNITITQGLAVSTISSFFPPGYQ

Kd: 39.9 nM
koff: 0.0069 s⁻¹
kon: 173000 M⁻¹ s⁻¹
Substance: GAZYVA (obinutuzumab), commercial afucosylated anti-CD20 antibody
